Laboratory results published in patent US20220363770A1 (Amgen, published 2022).

What was measured:
human CGRP receptor = human CGRP receptor (human, UniProt Q16602 23-461; O60894 27-148); assay: cell-based or functional assay
human PAC1 receptor = biological target: T1, human PAC1 receptor (human, UniProt P41586 24-468); assay: cell-based or functional assay
T1 sequence: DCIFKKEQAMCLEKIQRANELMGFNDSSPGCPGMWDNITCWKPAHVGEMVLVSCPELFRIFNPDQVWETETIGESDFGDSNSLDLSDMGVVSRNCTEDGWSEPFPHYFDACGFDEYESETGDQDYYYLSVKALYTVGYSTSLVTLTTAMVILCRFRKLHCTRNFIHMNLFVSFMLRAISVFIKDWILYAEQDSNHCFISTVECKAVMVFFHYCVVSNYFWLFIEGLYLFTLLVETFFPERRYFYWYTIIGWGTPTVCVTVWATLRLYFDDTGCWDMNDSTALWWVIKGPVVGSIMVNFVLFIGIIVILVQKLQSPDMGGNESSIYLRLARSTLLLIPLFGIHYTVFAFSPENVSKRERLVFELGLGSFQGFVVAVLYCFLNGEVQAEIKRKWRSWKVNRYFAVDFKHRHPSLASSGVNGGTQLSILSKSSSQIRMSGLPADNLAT

Sequence of human CGRP receptor (Q16602 23-461 limits assumed, chain 1 of 2): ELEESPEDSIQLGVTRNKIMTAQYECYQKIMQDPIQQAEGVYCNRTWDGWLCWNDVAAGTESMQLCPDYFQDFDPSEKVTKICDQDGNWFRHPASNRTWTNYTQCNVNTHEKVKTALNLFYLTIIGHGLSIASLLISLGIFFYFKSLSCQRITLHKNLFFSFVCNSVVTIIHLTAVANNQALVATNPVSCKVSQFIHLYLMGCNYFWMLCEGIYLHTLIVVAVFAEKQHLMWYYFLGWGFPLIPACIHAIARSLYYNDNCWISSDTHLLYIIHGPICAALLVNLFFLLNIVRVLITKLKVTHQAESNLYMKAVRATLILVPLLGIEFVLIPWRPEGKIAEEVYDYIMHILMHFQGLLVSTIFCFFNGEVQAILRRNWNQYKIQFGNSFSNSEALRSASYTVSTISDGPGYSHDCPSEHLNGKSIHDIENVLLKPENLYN
Sequence of human CGRP receptor (O60894 27-148 limits assumed, chain 2 of 2): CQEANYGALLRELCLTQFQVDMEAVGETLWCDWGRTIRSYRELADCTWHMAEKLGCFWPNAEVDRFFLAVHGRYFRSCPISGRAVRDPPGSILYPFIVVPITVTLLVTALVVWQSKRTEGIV

B1: iPS:454729 (bispecific antibody, human IgG1, kappa, lambda, N297G)
light 1: QSVLTQPPSVSAAPGQKVTISCSGSYSNIGRYSVSWYQQLPGTAPKLLIYDNNKRPSGIPDRFSGSKSGTSATLGITGLQTGDEADYYCGTWDSRLSAVVFGGGTKLTVLGQPKAAPSVTLFPPSSEELQANKATLVCLISDFYPGAVTVAWKADSSPVKAGVETTTPSKQSNNKYAAKSYLSLTPEQWKSHRSYSCQVTHEGSTVEKTVAPTECS
heavy 1: QVQLVESGGGVVQPGRSLRLSCAASGFTFSSFGMHWVRQAPGKGLEWVAVISFDGSIKYSVDSVKGRFTISRDNSKNTLFLQMNSLRAEDTAVYYCARDRLNYYESSGYYHYKYYGMAVWGQGTTVTVSSASTKGPSVFPLAPSSKSTSGGTAALGCLVKDYFPEPVTVSWNSGALTSGVHTFPAVLQSSGLYSLESVVTVPSSSLGTQTYICNVNHKPSNTKVDKKVEPKSCDKTHTCPPCPAPELLGGPSVFLFPPKPKDTLMISRTPEVTCVVVDVSHEDPEVKFNWYVDGVEVHNAKTKPCEEQYGSTYRCVSVLTVLHQDWLNGKEYKCKVSNKALPAPIEKTISKAKGQPREPQVYTLPPSRKKMTKNQVSLTCLVKGFYPSDIAVEWESNGQPENNYKTTPPVLKSDGSFFLYSKLTVDKSRWQQGNVFSCSVMHEALHNHYTQKSLSLSPGK
light 2: EIVLTQSPATLSLSPGERATLSCRASKSVGQSLHWYQQKPGQAPRLLIKYASQSLSGIPARFSGSGSGTDFTLTISSLEPEDFAVYYCHQSSRLPFTFGPGTKVDIKRTVAAPSVFIFPPSDEQLKSGTASVVCLLNNFYPREAKVQWKVDNALQSGNSQESVTEQDSKDSTYSLESTLTLSKADYEKHKVYACEVTHQGLSSPVTKSFNRGEC
heavy 2: not shown
- Fold-improvement over 4E4 Ab (human CGRP receptor): 1 fold
- IC50 (human CGRP receptor): 530 pM
- Fold-improvement over 29G4v22 Ab (human PAC1 receptor): 6.9 fold
- IC50 (human PAC1 receptor): 970 pM

B2: iPS:454735 (bispecific antibody, human IgG1, kappa, lambda, N297G)
light 1: QSVLTQPPSVSAAPGQKVTISCSGSYSNIGRYSVSWYQQLPGTAPKLLIYDNNKRPSGIPDRFSGSKSGTSATLGITGLQTGDEADYYCGTWDSRLSAVVFGGGTKLTVLGQPKAAPSVTLFPPSSEELQANKATLVCLISDFYPGAVTVAWKADSSPVKAGVETTTPSKQSNNKYAAKSYLSLTPEQWKSHRSYSCQVTHEGSTVEKTVAPTECS
heavy 1: QVQLVESGGGVVQPGRSLRLSCAASGFTFSSFGMHWVRQAPGKGLEWVAVISFDGSIKYSVDSVKGRFTISRDNSKNTLFLQMNSLRAEDTAVYYCARDRLNYYESSGYYHYKYYGMAVWGQGTTVTVSSASTKGPSVFPLAPSSKSTSGGTAALGCLVKDYFPEPVTVSWNSGALTSGVHTFPAVLQSSGLYSLESVVTVPSSSLGTQTYICNVNHKPSNTKVDKKVEPKSCDKTHTCPPCPAPELLGGPSVFLFPPKPKDTLMISRTPEVTCVVVDVSHEDPEVKFNWYVDGVEVHNAKTKPCEEQYGSTYRCVSVLTVLHQDWLNGKEYKCKVSNKALPAPIEKTISKAKGQPREPQVYTLPPSRKKMTKNQVSLTCLVKGFYPSDIAVEWESNGQPENNYKTTPPVLKSDGSFFLYSKLTVDKSRWQQGNVFSCSVMHEALHNHYTQKSLSLSPGK
light 2: EIVLTQSPATLSLSPGERATLSCRASKSVGQSLHWYQQKPGQAPRLLIKYASQSLSGIPARFSGSGSGTDFTLTISSLEPEDFAVYYCHQSSRLPFTFGPGTKVDIKRTVAAPSVFIFPPSDEQLKSGTASVVCLLNNFYPREAKVQWKVDNALQSGNSQESVTEQDSKDSTYSLESTLTLSKADYEKHKVYACEVTHQGLSSPVTKSFNRGEC
heavy 2: not shown
- Fold-improvement over 4E4 Ab (human CGRP receptor): 1 fold
- IC50 (human CGRP receptor): 520 pM
- Fold-improvement over 29G4v22 Ab (human PAC1 receptor): 3.4 fold
- IC50 (human PAC1 receptor): 1950 pM

B3: iPS:454739 (bispecific antibody, human IgG1, kappa, lambda, N297G)
light 1: QSVLTQPPSVSAAPGQKVTISCSGSYSNIGRYSVSWYQQLPGTAPKLLIYDNNKRPSGIPDRFSGSKSGTSATLGITGLQTGDEADYYCGTWDSRLSAVVFGGGTKLTVLGQPKAAPSVTLFPPSSEELQANKATLVCLISDFYPGAVTVAWKADSSPVKAGVETTTPSKQSNNKYAAKSYLSLTPEQWKSHRSYSCQVTHEGSTVEKTVAPTECS
heavy 1: QVQLVESGGGVVQPGRSLRLSCAASGFTFSSFGMHWVRQAPGKGLEWVAVISFDGSIKYSVDSVKGRFTISRDNSKNTLFLQMNSLRAEDTAVYYCARDRLNYYESSGYYHYKYYGMAVWGQGTTVTVSSASTKGPSVFPLAPSSKSTSGGTAALGCLVKDYFPEPVTVSWNSGALTSGVHTFPAVLQSSGLYSLESVVTVPSSSLGTQTYICNVNHKPSNTKVDKKVEPKSCDKTHTCPPCPAPELLGGPSVFLFPPKPKDTLMISRTPEVTCVVVDVSHEDPEVKFNWYVDGVEVHNAKTKPCEEQYGSTYRCVSVLTVLHQDWLNGKEYKCKVSNKALPAPIEKTISKAKGQPREPQVYTLPPSRKKMTKNQVSLTCLVKGFYPSDIAVEWESNGQPENNYKTTPPVLKSDGSFFLYSKLTVDKSRWQQGNVFSCSVMHEALHNHYTQKSLSLSPGK
light 2: EIVLTQSPATLSLSPGERATLSCRASKSVGWSLHWYQQKPGQAPRLLIKYASQSLSGIPARFSGSGSGTDFTLTISSLEPEDFAVYYCHQSSRLPFTFGPGTKVDIKRTVAAPSVFIFPPSDEQLKSGTASVVCLLNNFYPREAKVQWKVDNALQSGNSQESVTEQDSKDSTYSLESTLTLSKADYEKHKVYACEVTHQGLSSPVTKSFNRGEC
heavy 2: not shown
- Fold-improvement over 4E4 Ab (human CGRP receptor): 0.9 fold
- IC50 (human CGRP receptor): 570 pM
- Fold-improvement over 29G4v22 Ab (human PAC1 receptor): 3.5 fold
- IC50 (human PAC1 receptor): 1920 pM

B4: iPS:454731 (bispecific antibody, human IgG1, kappa, lambda, N297G)
light 1: QSVLTQPPSVSAAPGQKVTISCSGSYSNIGRYSVSWYQQLPGTAPKLLIYDNNKRPSGIPDRFSGSKSGTSATLGITGLQTGDEADYYCGTWDSRLSAVVFGGGTKLTVLGQPKAAPSVTLFPPSSEELQANKATLVCLISDFYPGAVTVAWKADSSPVKAGVETTTPSKQSNNKYAAKSYLSLTPEQWKSHRSYSCQVTHEGSTVEKTVAPTECS
heavy 1: QVQLVESGGGVVQPGRSLRLSCAASGFTFSSFGMHWVRQAPGKGLEWVAVISFDGSIKYSVDSVKGRFTISRDNSKNTLFLQMNSLRAEDTAVYYCARDRLNYYESSGYYHYKYYGMAVWGQGTTVTVSSASTKGPSVFPLAPSSKSTSGGTAALGCLVKDYFPEPVTVSWNSGALTSGVHTFPAVLQSSGLYSLESVVTVPSSSLGTQTYICNVNHKPSNTKVDKKVEPKSCDKTHTCPPCPAPELLGGPSVFLFPPKPKDTLMISRTPEVTCVVVDVSHEDPEVKFNWYVDGVEVHNAKTKPCEEQYGSTYRCVSVLTVLHQDWLNGKEYKCKVSNKALPAPIEKTISKAKGQPREPQVYTLPPSRKKMTKNQVSLTCLVKGFYPSDIAVEWESNGQPENNYKTTPPVLKSDGSFFLYSKLTVDKSRWQQGNVFSCSVMHEALHNHYTQKSLSLSPGK
light 2: EIVLTQSPATLSLSPGERATLSCRASKAVWHNLHWYQQKPGQAPRLLIKYASQSLSGIPARFSGSGSGTDFTLTISSLEPEDFAVYYCHQSSMLPFTFGPGTKVDIKRTVAAPSVFIFPPSDEQLKSGTASVVCLLNNFYPREAKVQWKVDNALQSGNSQESVTEQDSKDSTYSLESTLTLSKADYEKHKVYACEVTHQGLSSPVTKSFNRGEC
heavy 2: not shown
- Fold-improvement over 4E4 Ab (human CGRP receptor): 1 fold
- IC50 (human CGRP receptor): 520 pM
- Fold-improvement over 29G4v22 Ab (human PAC1 receptor): 1.8 fold
- IC50 (human PAC1 receptor): 3760 pM

B5: iPS:454737 (bispecific antibody, human IgG1, kappa, lambda, N297G)
light 1: QSVLTQPPSVSAAPGQKVTISCSGSYSNIGRYSVSWYQQLPGTAPKLLIYDNNKRPSGIPDRFSGSKSGTSATLGITGLQTGDEADYYCGTWDSRLSAVVFGGGTKLTVLGQPKAAPSVTLFPPSSEELQANKATLVCLISDFYPGAVTVAWKADSSPVKAGVETTTPSKQSNNKYAAKSYLSLTPEQWKSHRSYSCQVTHEGSTVEKTVAPTECS
heavy 1: QVQLVESGGGVVQPGRSLRLSCAASGFTFSSFGMHWVRQAPGKGLEWVAVISFDGSIKYSVDSVKGRFTISRDNSKNTLFLQMNSLRAEDTAVYYCARDRLNYYESSGYYHYKYYGMAVWGQGTTVTVSSASTKGPSVFPLAPSSKSTSGGTAALGCLVKDYFPEPVTVSWNSGALTSGVHTFPAVLQSSGLYSLESVVTVPSSSLGTQTYICNVNHKPSNTKVDKKVEPKSCDKTHTCPPCPAPELLGGPSVFLFPPKPKDTLMISRTPEVTCVVVDVSHEDPEVKFNWYVDGVEVHNAKTKPCEEQYGSTYRCVSVLTVLHQDWLNGKEYKCKVSNKALPAPIEKTISKAKGQPREPQVYTLPPSRKKMTKNQVSLTCLVKGFYPSDIAVEWESNGQPENNYKTTPPVLKSDGSFFLYSKLTVDKSRWQQGNVFSCSVMHEALHNHYTQKSLSLSPGK
light 2: EIVLTQSPATLSLSPGERATLSCRASKSVGQSLHWYQQKPGQAPRLLIKYASQSLSGIPARFSGSGSGTDFTLTISSLEPEDFAVYYCHQSSRLPFTFGPGTKVDIKRTVAAPSVFIFPPSDEQLKSGTASVVCLLNNFYPREAKVQWKVDNALQSGNSQESVTEQDSKDSTYSLESTLTLSKADYEKHKVYACEVTHQGLSSPVTKSFNRGEC
heavy 2: not shown
- Fold-improvement over 4E4 Ab (human CGRP receptor): 0.9 fold
- IC50 (human CGRP receptor): 550 pM
- Fold-improvement over 29G4v22 Ab (human PAC1 receptor): 2.8 fold
- IC50 (human PAC1 receptor): 2380 pM

B6: iPS:454733 (bispecific antibody, human IgG1, kappa, lambda, N297G)
light 1: QSVLTQPPSVSAAPGQKVTISCSGSYSNIGRYSVSWYQQLPGTAPKLLIYDNNKRPSGIPDRFSGSKSGTSATLGITGLQTGDEADYYCGTWDSRLSAVVFGGGTKLTVLGQPKAAPSVTLFPPSSEELQANKATLVCLISDFYPGAVTVAWKADSSPVKAGVETTTPSKQSNNKYAAKSYLSLTPEQWKSHRSYSCQVTHEGSTVEKTVAPTECS
heavy 1: QVQLVESGGGVVQPGRSLRLSCAASGFTFSSFGMHWVRQAPGKGLEWVAVISFDGSIKYSVDSVKGRFTISRDNSKNTLFLQMNSLRAEDTAVYYCARDRLNYYESSGYYHYKYYGMAVWGQGTTVTVSSASTKGPSVFPLAPSSKSTSGGTAALGCLVKDYFPEPVTVSWNSGALTSGVHTFPAVLQSSGLYSLESVVTVPSSSLGTQTYICNVNHKPSNTKVDKKVEPKSCDKTHTCPPCPAPELLGGPSVFLFPPKPKDTLMISRTPEVTCVVVDVSHEDPEVKFNWYVDGVEVHNAKTKPCEEQYGSTYRCVSVLTVLHQDWLNGKEYKCKVSNKALPAPIEKTISKAKGQPREPQVYTLPPSRKKMTKNQVSLTCLVKGFYPSDIAVEWESNGQPENNYKTTPPVLKSDGSFFLYSKLTVDKSRWQQGNVFSCSVMHEALHNHYTQKSLSLSPGK
light 2: EIVLTQSPATLSLSPGERATLSCRASRSVGLALHWYQQKPGQAPRLLIKYASQSLSGIPARFSGSGSGTDFTLTISSLEPEDFAVYYCHQSSFLPFTFGPGTKVDIKRTVAAPSVFIFPPSDEQLKSGTASVVCLLNNFYPREAKVQWKVDNALQSGNSQESVTEQDSKDSTYSLESTLTLSKADYEKHKVYACEVTHQGLSSPVTKSFNRGEC
heavy 2: not shown
- Fold-improvement over 4E4 Ab (human CGRP receptor): 0.9 fold
- IC50 (human CGRP receptor): 550 pM
- Fold-improvement over 29G4v22 Ab (human PAC1 receptor): 3 fold
- IC50 (human PAC1 receptor): 2210 pM
